Results from patent US20190135876A1 (TRELLIS BIOSCIENCE, published 2019).

B4: RSV G[161-197] (peptide)
peptide: MGNDFHFEVFNFVPCSICSNNPTCWAICKRIPNKKPGKKHHHHHH

Columns and labels:
[1] = target: CX3CR1 (human) (UniProt P49238); assay: cell-based or functional assay; settings: scale: chemotactic index
[2] = target: T1, CX3CR1 (human, UniProt P49238 1-355); assay: cell-based or functional assay
T1 sequence: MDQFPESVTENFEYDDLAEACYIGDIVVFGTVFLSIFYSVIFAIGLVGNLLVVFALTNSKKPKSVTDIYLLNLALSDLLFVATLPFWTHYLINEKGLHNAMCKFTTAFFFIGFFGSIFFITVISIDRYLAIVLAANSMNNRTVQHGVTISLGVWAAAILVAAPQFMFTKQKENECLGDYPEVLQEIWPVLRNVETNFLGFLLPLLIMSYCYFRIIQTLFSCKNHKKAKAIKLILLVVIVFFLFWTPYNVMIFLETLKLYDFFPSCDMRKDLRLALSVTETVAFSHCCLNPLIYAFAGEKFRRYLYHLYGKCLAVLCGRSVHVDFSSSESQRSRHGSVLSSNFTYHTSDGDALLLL

[3] = target: B4; assay: cell-based or functional assay
[4] = target: T1, CX3CR1; assay: cell-based or functional assay; remark: listed apart in the source
[5] = target: T2, RSV G[169-198] (respiratory syncytial virus); assay: complex formation and X-ray crystal structure
T2 construct: also called synthetic RSV G peptide
T2 peptide: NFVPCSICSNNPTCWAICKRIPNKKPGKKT
Source text: Diffraction data from a single crystal were processed with HKL2000.

## anti-CX3CR1 rabbit polyclonal antibody (ThermoFisher Scientific Cat# PAS-19910)
[1]
  chemotactic index of THP-1 cells pre-incubated with anti-CX3CR1 antibody, toward 5 nM RSV G[161-197]: 1.1

## NDFHFEVFNFVPCSICWNNPTCWAICKRIPNKKPGKK [RSV G (CCR) variant S177→W]
[2]
  Chemotactic activity (THP-1 chemotaxis assay, duplicate assays, standard deviation in parentheses): 1.2 chemotactic index (negative control PBS = 1.0)

## NDFYFEVFNFVPCSICSNNPTCWAICKRIPNKKPGKK [RSV G (CCR) variant H164→Y]
[2]
  Chemotactic activity (THP-1 chemotaxis assay, duplicate assays, standard deviation in parentheses): 3.8 chemotactic index (negative control PBS = 1.0)

## NDFHFKVFNFVPCSICSNNPTCWAICERIPNKKPGKK [RSV G (CCR) variant E166→K + K187 →E]
[2]
  Chemotactic activity (THP-1 chemotaxis assay, duplicate assays, standard deviation in parentheses): 1.8 chemotactic index (negative control PBS = 1.0)

## NDFHFEVFNFVPCSICSNNPTCWAICKRIPNKKPGKK [Wild type RSV G (CCR)]
[2]
  Chemotactic activity (THP-1 chemotaxis assay, duplicate assays, standard deviation in parentheses): 6.2 chemotactic index (negative control PBS = 1.0)

## NDFHFEVFNFVPCSICRNNPTCWAICKRIPNKKPGKK [RSV G (CCR) variant S177→R]
[2]
  Chemotactic activity (THP-1 chemotaxis assay, duplicate assays, standard deviation in parentheses): 0.9 chemotactic index (negative control PBS = 1.0)

## NDFHFKVFNFVPCSICSNNPTCWAICKRIPNKKPGKK [RSV G (CCR) variant E166→K]
[2]
  Chemotactic activity (THP-1 chemotaxis assay, duplicate assays, standard deviation in parentheses): 1.6 chemotactic index (negative control PBS = 1.0)

## NDFHFEVFNFVPCSICSNNPTCWAICKRIPNEEPGKK [RSV G (CCR) variant K192→E + K193 →E]
[2]
  Chemotactic activity (THP-1 chemotaxis assay, duplicate assays, standard deviation in parentheses): 2.5 chemotactic index (negative control PBS = 1.0)

B1: mAb 2D10 (antibody, V domains shown)
VH: QVQLVQSGPEVKKPGASVRLSCKASGYVFTNYGVSWVRQAPGQGLEWMGWSSPYNGNTYYAQKLKARVTMTTDTSTNTAYMELRSLRSDDTAVYYCGRDMLGVVQAVAGPFDSWGQGTLVTVSS
VL: DTPMTQSPSSVSASVGDRVTISCRASQGISNSLAWYQQKLGKAPQLLIYAASSLQSGVPSRFSGSGSGTDFTLTISSLQPEDFATYYCQQTNTFPFTFGPGTKVEVRR
[3]
  chemotactic index of THP-1 cells toward 5 nM RSV G[161-197] pre-incubated with 25 nM mAb: 1 chemotactic index (fold over serum-free media)

B2: RSV G ectodomain (G[ecto]) (other)
chain: SANHKVTPTTAIIQDATSQIKNTTPTYLTQNPQLGISPSNPSEITSQITTILASTTPGVKSTLQSTTVKTKNTTTTQTQPSKPTTKQRQNKPPSKPNNDFHFEVFNFVPCSICSNNPTCWAICKRIPNKKPGKKTTTKPTKKPTLKTTKKDPKPQTTKSKEVPTTKPTEEPTINTTKTNIITTLLTSNTTGNPELTSQMETFHSTSSEGNPSPSQVSTTSEYPSQPSSPPNTPRQHHHHHHGWSHPQFEKGGGSGGGSGGGSWSHPQFEK
[4]
  chemotactic index of THP-1 cells toward 5 nM RSV G[ecto]: 3.9 chemotactic index (fold over serum-free media)

B3: scFv 2D10 (scFv)
scFv: QVQLVQSGPEVKKPGASVRLSCKASGYVFTNYGVSWVRQAPGQGLEWMGWSSPYNGNTYYAQKLKARVTMTTDTSTNTAYMELRSLRSDDTAVYYCGRDMLGVVQAVAGPFDSWGQGTLVTVSSASGGGGSGGGGSGGGGSGGGDTPMTQSPSSVSASVGDRVTISCRASQGISNSLAWYQQKLGKAPQLLIYAASSLQSGVPSRFSGSGSGTDFTLTISSLQPEDFATYYCQQTNTFPFTFGPGTKVEVRR
notes: Expressed in Drosophila S2 cells with BiP signal; Twin-Strep tag removed with thrombin before use; A few vector residues probably remain at both ends (RS; ASLVPR); also called recombinant single-chain variable fragment (scFv) of 2D10
[5]
  binding result: binds

## B4
[4]
  chemotactic index of THP-1 cells toward 5 nM RSV G[161-197]: 4.2 chemotactic index (fold over serum-free media)

B5: mAb 3D3 (antibody, V domains shown)
VH: EEQLVESGGGLVQPGRSLRLSCVGSGLRFEEHAMHWVRQAPGRGLEWVSGISWNSGSVGYADSVKGRFTTSRDNAKDILFLEMNTLRSEDTALYFCAIMVATTKNDFHYYKDVWGKGTTVTVSS
VL: QIVLTQSPATLSLSPGERATLSCRASQSVSNHLAWYQQKPGQAPRLLIYETSNRATGIPPRFSGSGSGTDFTLTISSLEPEDFAVYYCQQRNNWYTFGQGTKLEIK
[3]
  chemotactic index of THP-1 cells toward 5 nM RSV G[161-197] pre-incubated with 25 nM mAb: 1.5 chemotactic index (fold over serum-free media)
